This is an account of results in the RNAGym collection of RNA variant scans (doi:10.1093/molbev/msab373).

B1: Azoarcus group I ribozyme (parent)
chain: GUGCCUUGCGCCGGGAAACCACGCAAGGGAUGGUGUCAAAUUCGGCGAAACCUAAGCGCCCGCCCGGGCGUAUGGCAACGCCGAGCCAAGCUUCGGCGCCUGCGCCGAUGAAGGUGUAGAGACUAGACGGCACCCACCUAAGGCAAACGCUAUGGUGAAGGCAUAGUCCAGGGAGUGGCGAAAGUCACACAAACCGG

Variants of B1 are the subject of this data set. Briefly: reverse-splicing fitness (ratio to wild type); higher = more active; in vitro selection; Mg2+ level not given. The essentials:
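An in vitro group I ribozyme library with randomized positions was T7-transcribed and gel-purified. In triplicate, 10 pmol RNA in EPPS pH 7.5 was reacted with 50 pmoles of a 30-nt RNA substrate for 1 h at 37 °C across several added MgCl2 levels (1–48 mM), then stopped with EDTA. Products were reverse transcribed from a substrate-complementary primer, PCR-amplified and sequenced (HiSeq 4000). Fitness is a variant's read proportion after selection over that before, normalised to wild type.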
Take GUGCCUUGCGCCGGGAAACCACGCAAGGGAUGGUGUCAAAUUCGGCGAAACCUAAGCGCCCGCCCGGGCGUAUGGCAACGCAGAGCCAAGCUUCGGCGCCUGCGCCGAUGGAGGUGUAGUGACUAGACGGCACCCACCUAAGGCGAACGAUAUGGUGAAGGCAUAGUCAAGGGAGAGGCGAAAGUCACACAAACCGG [C82A A111G A120U A145G C150A C169A U176A]: the reverse-splicing fitness came to 0.00865.
Then GUGCCUUGCGCCGGGAAACCACGCAAGGGAUGGUGUCAAAUUCGGCGAAACCUAAGCGCCCGCCCGGGCGUAUGGCAACGCAGAGCCAAGCUUCGGCGCCUGCGCCGAUGUAGGUGUAGGGACUAGACGGCACCCACCUAAGGCAAACGUUAUGGUGAAGGCAUAGUCGAGGGAGGGGCGAAAGUCACACAAACCGG [C82A A111U A120G C150U C169G U176G], with 0.00517.
Then GUGCCUUGCGCCGGGAAACCACGCAAGGGAUGGUGUCAAAUUCGGCGAAACCUAAGCGCCCGCCCGGGCGUAUGGCAACGCGGAGCCAAGCUUCGGCGCCUGCGCCGAUGUAGGUGUAGGGACUAGACGGCACCCACCUAAGGCUAACGUUAUGGUGAAGGCAUAGUCCAGGGAGCGGCGAAAGUCACACAAACCGG [C82G A111U A120G A145U C150U U176C], with 0.0175; and GUGCCUUGCGCCGGGAAACCACGCAAGGGAUGGUGUCAAAUUCGGCGAAACCUAAGCGCCCGCCCGGGCGUAUGGCAACGCAGAGCCAAGCUUCGGCGCCUGCGCCGAUGAAGGUGUAGAGACUAGACGGCACCCACCUAAGGCUAACGGUAUGGUGAAGGCAUAGUCGAGGGAGUGGCGAAAGUCACACAAACCGG [C82A A145U C150G C169G], with 0.00797; and GUGCCUUGCGCCGGGAAACCACGCAAGGGAUGGUGUCAAAUUCGGCGAAACCUAAGCGCCCGCCCGGGCGUAUGGCAACGCGGAGCCAAGCUUCGGCGCCUGCGCCGAUGGAGGUGUAGAGACUAGACGGCACCCACCUAAGGCUAACGUUAUGGUGAAGGCAUAGUCCAGGGAGCGGCGAAAGUCACACAAACCGG [C82G A111G A145U C150U U176C], with 0.165.
Consider GUGCCUUGCGCCGGGAAACCACGCAAGGGAUGGUGUCAAAUUCGGCGAAACCUAAGCGCCCGCCCGGGCGUAUGGCAACGCGGAGCCAAGCUUCGGCGCCUGCGCCGAUGCAGGUGUAGGGACUAGACGGCACCCACCUAAGGCUAACGCUAUGGUGAAGGCAUAGUCCAGGGAGGGGCGAAAGUCACACAAACCGG [C82G A111C A120G A145U U176G], for which the reverse-splicing fitness amounted to 0.00575.
The result for GUGCCUUGCGCCGGGAAACCACGCAAGGGAUGGUGUCAAAUUCGGCGAAACCUAAGCGCCCGCCCGGGCGUAUGGCAACGCGGAGCCAAGCUUCGGCGCCUGCGCCGAUGUAGGUGUAGUGACUAGACGGCACCCACCUAAGGCCAACGAUAUGGUGAAGGCAUAGUCAAGGGAGGGGCGAAAGUCACACAAACCGG [C82G A111U A120U A145C C150A C169A U176G] reads 0.0022.
As for GUGCCUUGCGCCGGGAAACCACGCAAGGGAUGGUGUCAAAUUCGGCGAAACCUAAGCGCCCGCCCGGGCGUAUGGCAACGCUGAGCCAAGCUUCGGCGCCUGCGCCGAUGCAGGUGUAGUGACUAGACGGCACCCACCUAAGGCCAACGCUAUGGUGAAGGCAUAGUCGAGGGAGUGGCGAAAGUCACACAAACCGG [C82U A111C A120U A145C C169G], the reverse-splicing fitness came out at 0.00298.
For GUGCCUUGCGCCGGGAAACCACGCAAGGGAUGGUGUCAAAUUCGGCGAAACCUAAGCGCCCGCCCGGGCGUAUGGCAACGCAGAGCCAAGCUUCGGCGCCUGCGCCGAUGCAGGUGUAGAGACUAGACGGCACCCACCUAAGGCGAACGGUAUGGUGAAGGCAUAGUCCAGGGAGAGGCGAAAGUCACACAAACCGG [C82A A111C A145G C150G U176A], the reverse-splicing fitness was determined as 0.00936.
Then GUGCCUUGCGCCGGGAAACCACGCAAGGGAUGGUGUCAAAUUCGGCGAAACCUAAGCGCCCGCCCGGGCGUAUGGCAACGCAGAGCCAAGCUUCGGCGCCUGCGCCGAUGUAGGUGUAGAGACUAGACGGCACCCACCUAAGGCCAACGCUAUGGUGAAGGCAUAGUCGAGGGAGCGGCGAAAGUCACACAAACCGG [C82A A111U A145C C169G U176C], with 0.0185; and GUGCCUUGCGCCGGGAAACCACGCAAGGGAUGGUGUCAAAUUCGGCGAAACCUAAGCGCCCGCCCGGGCGUAUGGCAACGCGGAGCCAAGCUUCGGCGCCUGCGCCGAUGCAGGUGUAGGGACUAGACGGCACCCACCUAAGGCUAACGCUAUGGUGAAGGCAUAGUCGAGGGAGCGGCGAAAGUCACACAAACCGG [C82G A111C A120G A145U C169G U176C], with 0.0132; and GUGCCUUGCGCCGGGAAACCACGCAAGGGAUGGUGUCAAAUUCGGCGAAACCUAAGCGCCCGCCCGGGCGUAUGGCAACGCCGAGCCAAGCUUCGGCGCCUGCGCCGAUGUAGGUGUAGAGACUAGACGGCACCCACCUAAGGCCAACGAUAUGGUGAAGGCAUAGUCCAGGGAGGGGCGAAAGUCACACAAACCGG [A111U A145C C150A U176G], with 0.0517.
Then GUGCCUUGCGCCGGGAAACCACGCAAGGGAUGGUGUCAAAUUCGGCGAAACCUAAGCGCCCGCCCGGGCGUAUGGCAACGCGGAGCCAAGCUUCGGCGCCUGCGCCGAUGUAGGUGUAGAGACUAGACGGCACCCACCUAAGGCAAACGCUAUGGUGAAGGCAUAGUCCAGGGAGAGGCGAAAGUCACACAAACCGG [C82G A111U U176A], with 0.214.
The result for GUGCCUUGCGCCGGGAAACCACGCAAGGGAUGGUGUCAAAUUCGGCGAAACCUAAGCGCCCGCCCGGGCGUAUGGCAACGCAGAGCCAAGCUUCGGCGCCUGCGCCGAUGCAGGUGUAGGGACUAGACGGCACCCACCUAAGGCGAACGCUAUGGUGAAGGCAUAGUCAAGGGAGCGGCGAAAGUCACACAAACCGG [C82A A111C A120G A145G C169A U176C] reads 0.0288.
As to GUGCCUUGCGCCGGGAAACCACGCAAGGGAUGGUGUCAAAUUCGGCGAAACCUAAGCGCCCGCCCGGGCGUAUGGCAACGCCGAGCCAAGCUUCGGCGCCUGCGCCGAUGAAGGUGUAGAGACUAGACGGCACCCACCUAAGGCCAACGUUAUGGUGAAGGCAUAGUCGAGGGAGCGGCGAAAGUCACACAAACCGG [A145C C150U C169G U176C], the reverse-splicing fitness came out at 0.0444.
